According to article PMC7491320, “Pdc2/Pat1 increases the range of decay factors and RNA bound by the Lsm1–7 complex”:

B1: U15 (SEC-MALS) (ssRNA)
RNA: UUUUUUUUUUUUUUU
B2: U15 (FAM) (ssRNA)
RNA: UUUUUUUUUUUUUUU

How the values were obtained:
[1] = biological target: T1, PatMC (Pat1/Pdc2 middle and C-terminal domains);Lsm1-7 complex (Schizosaccharomyces …, UniProt O42958;P87173;O94408;Q9Y7M4;O14352;O42978;Q9UUI1;O74499 …, |); assay: SEC-MALS; stoichiometric RNA; dimeric and tetrameric assemblies; FP: 200 mM NaCl, 20 mM HEPES pH 7.0, 1 mM DTT, 5 mM MgCl2, 0.3 ug/uL acetylated BSA, 500 pM 5'-FAM RNA, 22 C; settings: protein: recombinant;recombinant; tags: none stated in coexpressed complex;N-terminal His6-TEV on Lsm1, TEV-treated; copies: 1;1;1;1;1;1;1;1
[2] = biological target: T2, Lsm1-7 complex (Schizosaccharomyces pombe, UniProt P87173;O94408;Q9Y7M4;O14352;O42978;Q9UUI1;O74499 …); assay: SEC-MALS; monomeric complex; FP: 200 mM NaCl, 20 mM HEPES pH 7.0, 1 mM DTT, 5 mM MgCl2, 0.3 ug/uL acetylated BSA, 500 pM 5'-FAM RNA, 22 C; settings: protein: recombinant; tags: N-terminal His6-TEV on Lsm1, TEV-treated; copies: 1;1;1;1;1;1;1
[3] = biological target: T2, Lsm1-7 complex; assay: fluorescence polarization; 5 mM Mg2+; strongly favored; FP: 200 mM NaCl, 20 mM HEPES pH 7.0, 1 mM DTT, 5 mM MgCl2, 0.3 ug/uL acetylated BSA, 500 pM 5'-FAM RNA, 22 C; settings: protein: recombinant; tags: N-terminal His6-TEV on Lsm1, TEV-treated; copies: 1;1;1;1;1;1;1; label: 5'-FAM
[4] = biological target: T1, PatMC (Pat1/Pdc2 middle and C-terminal …); assay: fluorescence polarization; 5 mM Mg2+; Hill ~1; affinity not affected by PatMC; FP: 200 mM NaCl, 20 mM HEPES pH 7.0, 1 mM DTT, 5 mM MgCl2, 0.3 ug/uL acetylated BSA, 500 pM 5'-FAM RNA, 22 C; settings: protein: recombinant;recombinant; tags: none stated in coexpressed complex;N-terminal His6-TEV on Lsm1, TEV-treated; copies: 1;1;1;1;1;1;1;1; label: 5'-FAM

Binder	binding result [1]	binding result [2]	binding result [3]	binding result [4]
B1	binds	binds	–	–
B2	–	–	binds	binds
